Assay [1] has as its system 3×MBT domain of L3MBTL1. Put plainly: Triple SILAC pull-down, 3xMBT/3xMBTD355N ratio (cytoplasmic, nuclear and chromatin fractions of 293T cells).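 As to all read-outs here: proteins quantified with MaxQuant, requiring at least two unique peptides and quantification in both label directions, normalized to the mean of proteins from a digested loading control.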 It is filed as binding, human. Conditions: SILAC ratio, pull-down 3xMBT vs 3xMBTD355N; for 3xMBT/D355N UNC Heavy: experiment with UNC0638 in heavy SILAC media; for 3xMBT/D355N UNC Light: experiment with UNC0638 in light SILAC media.

For assay [2], the target named is T1, G9a and GLP (Homo sapiens, UniProt Q96KQ7+Q9H9B1).
T1 sequence (Q96KQ7 2-1210 limits assumed): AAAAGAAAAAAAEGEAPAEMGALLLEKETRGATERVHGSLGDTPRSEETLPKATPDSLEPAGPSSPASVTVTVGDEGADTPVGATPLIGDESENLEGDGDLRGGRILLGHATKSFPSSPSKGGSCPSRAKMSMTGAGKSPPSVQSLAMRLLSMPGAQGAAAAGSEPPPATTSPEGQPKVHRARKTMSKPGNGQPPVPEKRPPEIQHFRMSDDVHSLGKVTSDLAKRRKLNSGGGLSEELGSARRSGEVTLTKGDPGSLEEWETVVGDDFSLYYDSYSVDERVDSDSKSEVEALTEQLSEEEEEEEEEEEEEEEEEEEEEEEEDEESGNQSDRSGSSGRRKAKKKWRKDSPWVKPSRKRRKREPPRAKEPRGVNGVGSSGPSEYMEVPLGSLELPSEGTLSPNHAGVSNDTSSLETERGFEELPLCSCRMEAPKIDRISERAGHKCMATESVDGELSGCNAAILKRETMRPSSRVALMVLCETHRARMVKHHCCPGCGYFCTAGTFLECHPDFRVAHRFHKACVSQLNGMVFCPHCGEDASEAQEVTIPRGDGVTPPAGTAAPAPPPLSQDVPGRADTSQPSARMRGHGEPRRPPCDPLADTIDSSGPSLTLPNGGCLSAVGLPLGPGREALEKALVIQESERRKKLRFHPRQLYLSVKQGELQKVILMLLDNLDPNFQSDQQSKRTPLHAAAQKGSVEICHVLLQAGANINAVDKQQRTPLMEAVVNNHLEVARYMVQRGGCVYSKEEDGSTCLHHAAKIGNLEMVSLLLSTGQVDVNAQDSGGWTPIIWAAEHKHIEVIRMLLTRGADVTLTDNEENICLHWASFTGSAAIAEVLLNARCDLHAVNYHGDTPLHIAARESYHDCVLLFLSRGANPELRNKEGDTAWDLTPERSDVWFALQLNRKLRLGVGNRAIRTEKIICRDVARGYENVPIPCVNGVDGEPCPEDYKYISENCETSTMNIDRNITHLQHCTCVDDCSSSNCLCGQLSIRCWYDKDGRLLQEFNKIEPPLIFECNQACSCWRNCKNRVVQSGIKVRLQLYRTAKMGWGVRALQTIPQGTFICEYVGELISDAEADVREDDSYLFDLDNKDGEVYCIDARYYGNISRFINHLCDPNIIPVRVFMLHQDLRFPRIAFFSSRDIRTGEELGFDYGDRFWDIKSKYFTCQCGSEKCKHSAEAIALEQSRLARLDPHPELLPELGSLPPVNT
T1 sequence (Q9H9B1 2-1298 limits assumed): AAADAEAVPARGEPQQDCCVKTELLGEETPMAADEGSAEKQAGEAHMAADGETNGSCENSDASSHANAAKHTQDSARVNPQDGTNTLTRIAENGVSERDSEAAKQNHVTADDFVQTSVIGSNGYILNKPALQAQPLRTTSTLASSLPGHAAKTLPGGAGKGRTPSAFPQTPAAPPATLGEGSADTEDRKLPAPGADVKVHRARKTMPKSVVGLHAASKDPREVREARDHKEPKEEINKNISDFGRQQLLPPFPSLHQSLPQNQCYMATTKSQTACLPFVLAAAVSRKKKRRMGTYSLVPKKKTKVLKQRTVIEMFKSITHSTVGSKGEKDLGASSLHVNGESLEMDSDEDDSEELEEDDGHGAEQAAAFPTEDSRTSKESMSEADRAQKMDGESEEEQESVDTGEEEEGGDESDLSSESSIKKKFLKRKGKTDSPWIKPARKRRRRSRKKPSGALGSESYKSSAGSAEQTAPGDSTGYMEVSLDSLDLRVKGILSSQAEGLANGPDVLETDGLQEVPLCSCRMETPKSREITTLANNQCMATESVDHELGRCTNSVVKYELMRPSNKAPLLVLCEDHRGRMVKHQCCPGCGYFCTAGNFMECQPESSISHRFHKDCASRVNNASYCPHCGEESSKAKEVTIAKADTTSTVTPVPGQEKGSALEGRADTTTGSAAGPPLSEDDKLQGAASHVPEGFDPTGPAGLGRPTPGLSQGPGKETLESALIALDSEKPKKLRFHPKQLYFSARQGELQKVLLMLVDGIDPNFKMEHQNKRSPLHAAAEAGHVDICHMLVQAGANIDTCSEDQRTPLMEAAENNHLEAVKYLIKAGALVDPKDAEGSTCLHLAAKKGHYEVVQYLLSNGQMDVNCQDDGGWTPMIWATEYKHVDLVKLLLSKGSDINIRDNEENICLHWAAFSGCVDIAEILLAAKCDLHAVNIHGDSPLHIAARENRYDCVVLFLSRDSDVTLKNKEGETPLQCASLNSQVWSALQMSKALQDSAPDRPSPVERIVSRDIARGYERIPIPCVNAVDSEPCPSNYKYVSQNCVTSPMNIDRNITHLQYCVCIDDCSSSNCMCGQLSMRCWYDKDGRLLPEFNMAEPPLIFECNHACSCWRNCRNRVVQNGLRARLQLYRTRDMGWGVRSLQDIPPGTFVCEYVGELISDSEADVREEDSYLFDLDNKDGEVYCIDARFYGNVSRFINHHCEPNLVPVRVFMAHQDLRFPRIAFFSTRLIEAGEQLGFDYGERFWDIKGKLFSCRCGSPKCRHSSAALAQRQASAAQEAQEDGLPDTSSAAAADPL
Description: Triple SILAC pull-down after UNC0638 treatment of 293T cells, DMSO/UNC0638 ratio of protein captured by 3×MBT.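 As to all read-outs here: mass spectrometry (Q-Exactive) SILAC quantitation, DMSO/UNC0638 ratio computed after subtracting 3×MBTD355N mutant pull-down background, only proteins with at least twofold 3×MBT over mutant signal considered.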 It is filed as cell-based. On the set-up: endogenous in cells; host or cells: HEK 293T. Conditions: for Relative to UNC0638 UNC Heavy / Relative to UNC0638 UNC Light: SILAC ratio DMSO/UNC0638 of protein pulled down with 3xMBT; for Relative to UNC0638 UNC Heavy: UNC0638 in heavy SILAC media; for Relative to UNC0638 UNC Light: UNC0638 in light SILAC media; for Relative to UNC0638 Average: average of UNC Light and UNC Heavy experiments.

B1: EIF4E2 (protein, UniProt O60573 1-245, looked up)
Eukaryotic translation …: MNNKFDALKDDDSGDHDQNEENSTQKDGEKEKTERDKNQSSSKRKAVVPGPAEHPLQYNYTFWYSRRTPGRPTSSQSYEQNIKQIGTFASVEQFWRFYSHMVRPGDLTGHSDFHLFKEGIKPMWEDDANKNGGKWIIRLRKGLASRCWENLILAMLGEQFMVGEEICGAVVSVRFQEDIISIWNKTASDQATTARIRDTLRRVLNLPPNTIMEYKTHTDSIKMPGRLGPQRLLFQNLWKPRLNVP
Take B1: in assay [1], the “3xMBT/D355N UNC Heavy” value turned out to be 1.89 log base 2 and the “3xMBT/D355N UNC Light” value came to 2.26 log base 2. Besides, in assay [2], the “Relative to UNC0638 UNC Heavy” value is reported as 0.24 log base 2, the “Relative to UNC0638 UNC Light” value was determined as 0.06 log base 2 and the “Relative to UNC0638 Average” value is on record as 0.15 log base 2.

B2: SNRPA1 (protein, UniProt P09661 2-255, looked up)
U2 small nuclear …: VKLTAELIEQAAQYTNAVRDRELDLRGYKIPVIENLGATLDQFDAIDFSDNEIRKLDGFPLLRRLKTLLVNNNRICRIGEGLDQALPCLTELILTNNSLVELGDLDPLASLKSLTYLSILRNPVTNKKHYRLYVIYKVPQVRVLDFQKVKLKERQEAEKMFKGKRGAQLAKDIARRSKTFNPGAGLPTDKKKGGPSPGDVEAIKNAIANASTLAEVERLKGLLQSGQIPGRERRSGPTDDGEEEMEEDTVTNGS
Take B2: in assay [1], the “3xMBT/D355N UNC Heavy” value was 2.94 log base 2 and the “3xMBT/D355N UNC Light” value turned out to be 3.39 log base 2. In assay [2], the “Relative to UNC0638 UNC Heavy” value is given as 0.08 log base 2, the “Relative to UNC0638 UNC Light” value came to 0.22 log base 2 and the “Relative to UNC0638 Average” value is reported as 0.15 log base 2.

B3: C22orf28 (protein, UniProt Q9Y3I0 1-505, looked up)
RNA-splicing ligase RtcB …: MSRSYNDELQFLEKINKNCWRIKKGFVPNMQVEGVFYVNDALEKLMFEELRNACRGGGVGGFLPAMKQIGNVAALPGIVHRSIGLPDVHSGYGFAIGNMAAFDMNDPEAVVSPGGVGFDINCGVRLLRTNLDESDVQPVKEQLAQAMFDHIPVGVGSKGVIPMNAKDLEEALEMGVDWSLREGYAWAEDKEHCEEYGRMLQADPNKVSARAKKRGLPQLGTLGAGNHYAEIQVVDEIFNEYAAKKMGIDHKGQVCVMIHSGSRGLGHQVATDALVAMEKAMKRDKIIVNDRQLACARIASPEGQDYLKGMAAAGNYAWVNRSSMTFLTRQAFAKVFNTTPDDLDLHVIYDVSHNIAKVEQHVVDGKERTLLVHRKGSTRAFPPHHPLIAVDYQLTGQPVLIGGTMGTCSYVLTGTEQGMTETFGTTCHGAGRALSRAKSRRNLDFQDVLDKLADMGIAIRVASPKLVMEEAPESYKNVTDVVNTCHDAGISKKAIKLRPIAVIKG
As to B3, in assay [1], the “3xMBT/D355N UNC Heavy” value stood at 2.49 log base 2 and the “3xMBT/D355N UNC Light” value was 2.67 log base 2. Besides, in assay [2], the “Relative to UNC0638 UNC Heavy” value is listed as 0.08 log base 2, the “Relative to UNC0638 UNC Light” value is on record as 0.22 log base 2 and the “Relative to UNC0638 Average” value came out at 0.15 log base 2.

B4: ZC3HAV1L (protein, UniProt Q96H79 2-300, looked up)
Zinc finger CCCH-type …: AEPTVCSFLTKVLCAHGGRMFLKDLRGHVELSEARLRDVLQRAGPERFLLQEVETQEGLGDAEAEAAAGAVGGGGTSAWRVVAVSSVRLCARYQRGECQACDQLHFCRRHMLGKCPNRDCWSTCTLSHDIHTPVNMQVLKSHGLFGLNENQLRILLLQNDPCLLPEVCLLYNKGEALYGYCNLKDKCNKFHVCKSFVKGECKLQTCKRSHQLIHAASLKLLQDQGLNIPSVVNFQIISTYKHMKLHKMLENTDNSSPSTEHSQGLEKQGVHAAGAAEAGPLASVPAQSAKKPCPVSCEK
In the case of B4, in assay [1], the “3xMBT/D355N UNC Heavy” value came out at 1.71 log base 2 and the “3xMBT/D355N UNC Light” value is 2.00 log base 2. In assay [2], the “Relative to UNC0638 UNC Heavy” value is 0.14 log base 2, the “Relative to UNC0638 UNC Light” value is on record as 0.16 log base 2 and the “Relative to UNC0638 Average” value is on record as 0.15 log base 2.

B5: EEF1D (protein, UniProt P29692 2-281, looked up)
Elongation factor 1-delta: ATNFLAHEKIWFDKFKYDDAERRFYEQMNGPVAGASRQENGASVILRDIARARENIQKSLAGSSGPGASSGTSGDHGELVVRIASLEVENQSLRGVVQELQQAISKLEARLNVLEKSSPGHRATAPQTQHVSPMRQVEPPAKKPATPAEDDEDDDIDLFGSDNEEEDKEAAQLREERLRQYAEKKAKKPALVAKSSILLDVKPWDDETDMAQLEACVRSIQLDGLVWGASKLVPVGYGIRKLQIQCVVEDDKVGTDLLEEEITKFEEHVQSVDIAAFNKI
For the molecule B5, in assay [1], the “3xMBT/D355N UNC Heavy” value is given as 3.34 log base 2 and the “3xMBT/D355N UNC Light” value turned out to be 3.56 log base 2. For the same molecule, in assay [2], the “Relative to UNC0638 UNC Heavy” value amounted to 0.11 log base 2, the “Relative to UNC0638 UNC Light” value is 0.20 log base 2 and the “Relative to UNC0638 Average” value amounted to 0.15 log base 2.

Values taken from patent publication US20140274782A1, “AFFINITY REAGENTS AND METHODS FOR DETECTION, PURIFICATION, AND PROTEOMIC ANALYSIS OF METHYLATED PROTEINS” (The Board of Trustees of the Leland Stanford Junior …, priority 2013, published 2014).
